Measurements as given in patent publication US20220040319A1, “METHODS OF TREATING OCULAR CANCER USING ANTI-MET ANTIBODIES AND BISPECIFIC ANTIGEN BINDING MOLECULES THAT BIND MET” (Regeneron Pharmaceuticals, Inc., priority 2019, published 2022).

Assays:
[1] = target: human MET (exon14 skip mutation) on NCI-H596 cells (human) (UniProt P08581); test: cell-based or functional assay
[2] = target: MET (c-Met, hepatocyte growth factor receptor) on cells (human) (UniProt P08581)
[3] = target: MET (c-Met, hepatocyte growth factor receptor) on cells (human) (UniProt P08581); remark: listed apart in the source

MET (c-Met, hepatocyte growth factor receptor) on cells (human), sequence (P08581 25-1390 limits assumed, form in doubt): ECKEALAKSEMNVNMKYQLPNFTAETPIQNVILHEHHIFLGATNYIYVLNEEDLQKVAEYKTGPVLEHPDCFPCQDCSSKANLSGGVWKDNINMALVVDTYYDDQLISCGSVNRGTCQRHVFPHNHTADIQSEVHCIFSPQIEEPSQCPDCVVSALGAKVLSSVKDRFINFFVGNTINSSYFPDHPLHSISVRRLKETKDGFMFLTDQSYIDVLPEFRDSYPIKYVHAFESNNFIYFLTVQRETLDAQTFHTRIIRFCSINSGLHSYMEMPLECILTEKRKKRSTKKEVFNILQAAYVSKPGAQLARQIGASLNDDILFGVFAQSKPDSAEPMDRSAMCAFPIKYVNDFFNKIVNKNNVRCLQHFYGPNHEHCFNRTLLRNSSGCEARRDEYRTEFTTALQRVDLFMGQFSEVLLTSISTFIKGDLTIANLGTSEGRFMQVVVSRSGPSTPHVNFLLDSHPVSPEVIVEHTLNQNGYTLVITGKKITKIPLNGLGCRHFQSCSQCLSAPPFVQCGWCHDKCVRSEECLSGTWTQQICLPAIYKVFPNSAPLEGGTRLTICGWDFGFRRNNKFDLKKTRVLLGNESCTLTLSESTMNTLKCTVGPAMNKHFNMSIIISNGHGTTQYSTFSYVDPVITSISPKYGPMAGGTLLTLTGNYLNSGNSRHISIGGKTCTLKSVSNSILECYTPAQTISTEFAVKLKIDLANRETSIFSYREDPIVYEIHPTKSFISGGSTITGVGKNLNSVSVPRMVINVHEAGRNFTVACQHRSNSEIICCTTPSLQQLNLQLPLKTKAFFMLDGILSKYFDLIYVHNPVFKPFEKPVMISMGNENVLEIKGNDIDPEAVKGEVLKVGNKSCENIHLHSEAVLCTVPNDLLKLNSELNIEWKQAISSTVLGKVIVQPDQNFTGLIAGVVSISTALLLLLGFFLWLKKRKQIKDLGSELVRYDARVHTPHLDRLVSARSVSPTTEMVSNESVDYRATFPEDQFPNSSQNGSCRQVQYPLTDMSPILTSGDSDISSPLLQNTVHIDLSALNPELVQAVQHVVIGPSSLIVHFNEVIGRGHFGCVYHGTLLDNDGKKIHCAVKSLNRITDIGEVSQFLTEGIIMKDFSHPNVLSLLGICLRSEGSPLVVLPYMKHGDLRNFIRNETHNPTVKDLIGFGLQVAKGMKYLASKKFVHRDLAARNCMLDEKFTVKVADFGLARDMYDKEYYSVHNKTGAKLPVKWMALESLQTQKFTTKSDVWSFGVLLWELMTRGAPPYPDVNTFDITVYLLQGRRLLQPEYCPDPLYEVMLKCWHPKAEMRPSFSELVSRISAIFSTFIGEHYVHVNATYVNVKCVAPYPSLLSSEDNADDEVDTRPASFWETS
human MET (exon14 skip mutation) on NCI-H596 cells (human), sequence (P08581 25-1390, change not shown): as the sequence (P08581 25-1390 limits assumed, form in doubt) above

hepatocyte growth factor (from UniProt P14210 32-728) (ligand)
Relative Cell Growth (n = 3), NCI-H596 cells in soft agar, 100 ng/mL HGF, two weeks (normalized to control) [1]: 7.88

monovalent anti-MET antibody (made with the heavy and light chain variable sequences of MetMab)
IC50 (read off the curve); blocking of HGF-dependent SRE-driven luciferase signal in HEK293T cells [2]: 0.4 nM
IC50 (read off the curve); blocking of HGF-induced SRE-luciferase signal in HEK293/SRE-Luc cells [3]: 0.06 nM
